Values quoted from earlier work as cited in publication PMC3078175.

Target: IL-17RB (Homo sapiens) (UniProt Q9NRM6)
Sequence of UniProt Q9NRM6 (Q9NRM6 18-292): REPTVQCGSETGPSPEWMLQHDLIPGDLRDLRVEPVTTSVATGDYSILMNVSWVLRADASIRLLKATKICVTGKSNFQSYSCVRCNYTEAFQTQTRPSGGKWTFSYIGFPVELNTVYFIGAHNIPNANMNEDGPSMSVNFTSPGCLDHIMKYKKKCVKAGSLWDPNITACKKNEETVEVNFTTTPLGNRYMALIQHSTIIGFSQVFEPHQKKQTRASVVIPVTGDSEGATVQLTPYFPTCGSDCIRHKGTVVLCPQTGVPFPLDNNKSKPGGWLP

- Kd: 7.6 nM
Substance: IL-17B (from UniProt Q9UHF5)
